These results are taken from publication PMC9889334.

For series [1], the target named is CBKP2, PaKEOPS complex with PaPcc2 in place of PaPcc1 (PaCgi121/PaBud32/PaKae1/PaPcc2) (Pyrococcus abyssi) (UniProt Q9UXT7). Description: SEC-SAXS; purified complexes loaded at 2.55 (CBKP1P2), 0.72 (CBKP1) and 3 mg/ml (CBKP2) on a Bio-SEC3 column; 20 mM Tris pH 8.5, 300 mM NaCl, 5 mM 2-mercaptoethanol, 5% glycerol. On the technique in general: In gel filtration, larger molecules generally elute earlier.

Series [2] addresses PaCgi121;PaBud32;PaKae1;PaPcc2-His6 (Pyrococcus abyssi;Pyrococcus abyssi;Pyrococcus abyssi;Pyrococcus abyssi) (UniProt Q9UZ62+Q9UYB9+Q9UXT7+A0A915Q983). As to the kind of experiment: fluorescence anisotropy. As to conditions: CBKP2 complex; 3 mM Mg2+; 10 nM tRNA (Suppl. Fig. 7C); 20 mM Tris-HCl pH 8, 150 mM KCl, 3 mM MgCl2, 1% glycerol, 1 nM labelled tRNA (10 nM in Suppl. Fig. 7C), 20 °C, 15 min. A general note: Polarisation of emitted light reports the rotation of a fluorescent probe.

Series [3] addresses PaCgi121;PaBud32;PaKae1;PaPcc1-His6;PaPcc2-Strep (Pyrococcus abyssi;Pyrococcus abyssi;Pyrococcus abyssi;Pyrococcus abyssi;Pyrococcus abyssi) (UniProt Q9UZ62+Q9UYB9+Q9UXT7+Q9V1Z9+A0A915Q984). Description: fluorescence anisotropy. As to conditions: CBKP1P2 complex; 3 mM Mg2+; n=3; 20 mM Tris-HCl pH 8, 150 mM KCl, 3 mM MgCl2, 1% glycerol, 1 nM labelled tRNA (10 nM in Suppl. Fig. 7C), 20 °C, 15 min.

In series [4] the target is PaPcc2 with C-terminal hexa-histidine tag (Pyrococcus abyssi Pcc2) (Pyrococcus abyssi). Description: SEC; Ni-NTA eluate on HiLoad 16/600 Superdex 200 pg or Superdex 75 pg; 20 mM Tris-HCl pH 8, 500 mM KCl, 10% glycerol, 5 mM ß-mercaptoethanol.

Chain of PaCgi121;PaBud32;PaKae1;PaPcc2-His6 (Pyrococcus abyssi;Pyrococcus abyssi;Pyrococcus abyssi;Pyrococcus abyssi) (Q9UZ62 whole entry, chain 1 of 4): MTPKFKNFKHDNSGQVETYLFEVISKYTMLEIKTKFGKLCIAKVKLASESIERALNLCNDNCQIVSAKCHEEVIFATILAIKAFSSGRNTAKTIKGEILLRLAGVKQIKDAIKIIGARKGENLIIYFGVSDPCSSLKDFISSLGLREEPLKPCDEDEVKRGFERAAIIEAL
Chain of PaCgi121;PaBud32;PaKae1;PaPcc2-His6 (Pyrococcus abyssi;Pyrococcus abyssi;Pyrococcus abyssi;Pyrococcus abyssi) (Q9UYB9 whole entry, chain 2 of 4): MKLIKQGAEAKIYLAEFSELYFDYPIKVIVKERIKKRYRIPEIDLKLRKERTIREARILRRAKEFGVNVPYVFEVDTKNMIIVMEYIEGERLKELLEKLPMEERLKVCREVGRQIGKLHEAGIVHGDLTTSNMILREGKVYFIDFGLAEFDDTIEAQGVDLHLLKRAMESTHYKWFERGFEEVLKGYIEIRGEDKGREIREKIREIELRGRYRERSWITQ
Chain of PaCgi121;PaBud32;PaKae1;PaPcc2-His6 (Pyrococcus abyssi;Pyrococcus abyssi;Pyrococcus abyssi;Pyrococcus abyssi) (Q9UXT7 whole entry, chain 3 of 4): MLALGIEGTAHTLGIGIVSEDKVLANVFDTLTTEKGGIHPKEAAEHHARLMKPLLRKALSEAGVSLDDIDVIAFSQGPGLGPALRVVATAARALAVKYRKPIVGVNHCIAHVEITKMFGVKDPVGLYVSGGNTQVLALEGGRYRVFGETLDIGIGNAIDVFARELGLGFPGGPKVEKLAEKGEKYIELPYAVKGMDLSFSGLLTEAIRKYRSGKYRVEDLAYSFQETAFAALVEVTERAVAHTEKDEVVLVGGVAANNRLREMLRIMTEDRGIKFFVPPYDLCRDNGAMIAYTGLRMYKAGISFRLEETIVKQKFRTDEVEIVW
Chain of PaCgi121;PaBud32;PaKae1;PaPcc2-His6 (Pyrococcus abyssi;Pyrococcus abyssi;Pyrococcus abyssi;Pyrococcus abyssi) (chain, as listed by the source, chain 4 of 4): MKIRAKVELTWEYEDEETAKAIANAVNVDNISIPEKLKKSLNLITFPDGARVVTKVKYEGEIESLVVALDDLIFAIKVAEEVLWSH

With “CBKP2, PaKEOPS complex with PaPcc2 in place of PaPcc1 (PaCgi121/PaBud32/PaKae1/PaPcc2) (from UniProt Q9UXT7 1-324)”, the stoichiometry N (usually a count of units in the complex or per binding partner) in series [1] was determined as 2. As to “GGGCCGGUAGCUCAGCCUGGUCAGAGCACCGGGCUUUUAACCCGGUGGUCGCGGGUUCAAAUCCCGCCCGGCCCGCCA [Pa_tRNALys (UUU)]”, the Kd (commonly the equilibrium constant for the complex coming apart) is 1800 nM in series [2] and 100 nM in series [3]. The substance “PaPcc2 with C-terminal hexa-histidine tag (Pyrococcus abyssi Pcc2) (natural protein)” came in with a stoichiometry N in series [4] of 2.
